Measurements: patent US9850504B2, “Method for the enzymatic production of 3-buten-2-one” (Scientist of Fortune S.A., priority 2013, dated 2017)

Tests used:
[1] = target: 3-hydroxypropionyl-CoA dehydratase from Sulfolobus tokodaii, SEQ ID NO: 3 (Uniprot F9VNG3) (Sulfurisphaera tokodaii, UniProt F9VNG3); assay: Kinetic parameters of the dehydration of 4-hydroxy-2-butanone to 3-buten-2-one; type: biochemical; conditions: 0-300 mM 4-hydroxy-2-butanone, 20 mM MgCl2, pH 7.5, 37° C
Experimental: Each assay was started with the addition of a specific enzyme at a final concentration of 4 mg/ml. Control assays were performed in which either no enzyme was added, or no substrate was added. Test tubes were incubated for 23 hours with shaking at 37° C. Reaction products were extracted with an equal volume of ethyl acetate and then analyzed by HPLC. Commercial 3-buten-2-one (Sigma) was used as reference. […] The mobile phase consisted of 98:2 (v/v) H2O/Acetonitrile containing 8.4 mM sulfuric acid. Retention time of 3-buten-2-one under these conditions was 5.4 min.
Kinetic parameters of the reaction were determined for purified recombinant 3-hydroxypropionyl-CoA dehydratase from Sulfolobus tokodaii under the following conditions:
4 mg/ml 3-Hydroxypropionyl-CoA dehydratase S. tokodaii
Test tubes were incubated for 0, 20, 60, 120 and 180 min with shaking at 37° C. The formation of 3-buten-2-one was quantified using commercial 3-buten-2-one according to the procedure described in Example 4.

[2] = target: T1, Secondary alcohol dehydrogenase from Rhodococcus ruber, SEQ ID NO: 12 (Uniprot Q8KLT9) (Rhodococcus ruber, UniProt Q8KLT9); assay: Kinetic parameters of the reduction of 3-buten-2-one to 3-buten-2-ol; type: biochemical; conditions: 0-40 mM 3-buten-2-one, 40 mM NADPH, pH 7.5, 37° C
T1 sequence (Q8KLT9 1-346): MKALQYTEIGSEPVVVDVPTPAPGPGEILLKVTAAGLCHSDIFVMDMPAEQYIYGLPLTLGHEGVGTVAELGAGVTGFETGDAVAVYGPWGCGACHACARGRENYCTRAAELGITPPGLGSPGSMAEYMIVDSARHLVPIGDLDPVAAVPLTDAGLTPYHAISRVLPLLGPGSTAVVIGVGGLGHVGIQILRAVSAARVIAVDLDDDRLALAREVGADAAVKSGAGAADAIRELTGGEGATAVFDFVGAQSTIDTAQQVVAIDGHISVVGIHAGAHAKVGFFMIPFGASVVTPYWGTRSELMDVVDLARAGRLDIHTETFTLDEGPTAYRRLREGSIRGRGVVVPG
Experimental: (§1) The assays were incubated for various time periods (0, 20, 40, 60 120 and 240 min) with shaking at 37° C. […] The reaction products were then extracted with an equal volume of ethyl acetate. 150 μl of the upper ethyl acetate phase was transferred into a clean vial for HPLC analysis. Commercial 3-buten-2-ol (Sigma) was used as reference. […] The mobile phase consisted of 98:2 (v/v) H2O/acetonitrile containing 8.4 mM sulfuric acid. Retention time of 3-buten-2-ol and 3-buten-2-one under these conditions was 3.9 and 5.4 min, respectively.
(§2) The studied enzymatic reaction was carried out under the following conditions at 37° C.:
1 mg/ml alcohol dehydrogenase from R. ruber.
(§3) Reaction volume was 200 μl.
(§4) The assays were incubated for 0, 10, 20, 40, 60 and 120 min with shaking at 37° C. The formation of 3-buten-2-ol was quantified according to the protocol described in Example 8.

[3] = target: linalool dehydratase-isomerase from Castellaniella defragrans (formerly Alcaligenes defragrans), SEQ ID NO: 19 (Castellaniella defragrans, UniProt E1XUJ2); assay: 1,3-butadiene production from 3-buten-2-ol (GC/FID); type: biochemical; conditions: 0-80 mM 3-buten-2-ol, cell lysate with recombinant enzyme, 2 mM DTT, pH 7.5, 37° C, 1-22 hours
Description: The sequence of linalool dehydratase-isomerase inferred from the genome of Castellaniella defragrans (formerly Alcaligenes defragrans) was generated by oligonucleotide concatenation to fit the codon usage of E. coli. A stretch of 6 histidine codons was inserted after the methionine initiation codon to provide an affinity tag for purification. The gene thus synthesized was cloned in a pET25b(+) expression vector (the vector was constructed by GeneArt AG). Competent E. coli BL21(DE3) cells (Novagen) were transformed with this vector according to the heat shock procedure. As negative control, E. coli BL21(DE3) strain was transformed with empty vector. The transformed cells were grown with shaking (160 rpm) on ZYM-5052 auto-induction medium (Studier F W, Prot. Exp. Pur. 41 (2005), 207-234) for 6 hours at 37° C. and protein expression was continued at 18° C. overnight (approximately 12 hours). The cells were collected by centrifugation at 4° C., 10,000 rpm for 20 min and the pellets were frozen at −80° C.
The pellets from 100 ml of culture cells were thawed on ice and resuspended in 4 ml of 50 mM Tris-HCl pH 7.5. […] Protein concentration was determined using the Bradford method (Biorad). […]
0.25 ml of cell lysate containing recombinant linalool dehydratase-isomerase was added to 0.5 ml of reaction mixture. […] 1,3-butadiene production was analyzed by GC/FID procedure. […]

[4] = substrate: CC(=O)CC(=O)SCCNC(=O)CCNC(=O)[C@H](O)C(C)(C)COP(=O)(O)OP(=O)(O)OC[C@H]1O[C@@H](n2cnc3c(N)ncnc32)[C@H](O)[C@@H]1OP(=O)(O)O; assay: purified protein, by the assay type; conditions: other: acetoacetyl-CoA variable (0-32 mM), NADPH 60 mM, pH 7.5, 37° C
[5] = substrate: C=CC(C)=O; assay: Enzyme-catalyzed reduction of 3-buten-2-one to 3-buten-2-ol, HPLC-based; type: biochemical, Thermoanaerobium brockii; conditions: other: 0-40 mM 3-buten-2-one, 40 mM NADPH, 0.1 mM ZnCl2, pH 7.5, 37° C
Experimental: as §2
1 mg/ml alcohol dehydrogenase from Th. brockii
as §3, §1

[6] = substrate: C=CC(C)=O; assay: Kinetic parameters of the reduction of 3-buten-2-one to 3-buten-2-ol; type: biochemical, Lactobacillus kefiri; conditions: other: 0-40 mM 3-buten-2-one, 40 mM NADPH, pH 7.5, 37° C
Experimental: as §1, §2
1 mg/ml alcohol dehydrogenase from L. kefiri.
as §3, §4

Chain of 3-hydroxypropionyl-CoA dehydratase from Sulfolobus tokodaii, SEQ ID NO: 3 (Uniprot F9VNG3) (F9VNG3 1-257): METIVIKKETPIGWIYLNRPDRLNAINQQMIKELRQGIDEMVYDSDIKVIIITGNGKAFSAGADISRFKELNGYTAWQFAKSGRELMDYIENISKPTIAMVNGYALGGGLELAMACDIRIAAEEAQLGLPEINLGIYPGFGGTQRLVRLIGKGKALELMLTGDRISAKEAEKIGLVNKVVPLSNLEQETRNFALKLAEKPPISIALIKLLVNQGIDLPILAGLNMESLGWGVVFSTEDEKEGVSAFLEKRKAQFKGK
Chain of linalool dehydratase-isomerase from Castellaniella defragrans (formerly Alcaligenes defragrans), SEQ ID NO: 19 (E1XUJ2 27-397): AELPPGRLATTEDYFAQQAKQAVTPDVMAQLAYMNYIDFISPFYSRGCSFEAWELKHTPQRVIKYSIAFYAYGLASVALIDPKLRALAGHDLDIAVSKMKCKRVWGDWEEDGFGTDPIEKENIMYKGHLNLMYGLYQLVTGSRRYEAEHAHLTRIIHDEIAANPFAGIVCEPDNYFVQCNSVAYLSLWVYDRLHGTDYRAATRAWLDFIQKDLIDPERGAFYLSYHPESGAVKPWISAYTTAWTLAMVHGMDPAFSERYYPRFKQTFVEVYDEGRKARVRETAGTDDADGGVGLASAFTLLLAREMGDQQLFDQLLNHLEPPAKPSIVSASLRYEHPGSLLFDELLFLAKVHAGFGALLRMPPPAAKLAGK

## CC(=O)CCO [4-hydroxy-2-butanone]
[1]
  kcat: 0.0075 s⁻¹

## C=CC(C)=O [3-buten-2-one]
[2]
  kcat: at least 0.03 s^−1

## C=CC(C)O (centres unmarked) [3-buten-2-ol]
[3]
  turnover number: about 10^−4 s^−1 substrate molecule per enzyme active site

B1: Short-chain dehydrogenase/reductase (Fatty alcohol forming acyl-CoA reductase) from Marinobacter aquaeolei VT8, SEQ ID NO: 7 (Uniprot A1U3L3) (Marinobacter … (protein)
chain: MNYFLTGGTGFIGRFLVEKLLARGGTVYVLVREQSQDKLERLRERWGADDKQVKAVIGDLTSKNLGIDAKTLKSLKGNIDHVFHLAAVYDMGADEEAQAATNIEGTRAAVQAAEAMGAKHFHHVSSIAAAGLFKGIFREDMFEEAEKLDHPYLRTKHESEKVVREECKVPFRIYRPGMVIGHSETGEMDKVDGPYYFFKMIQKIRHALPQWVPTIGIEGGRLNIVPVDFVVDALDHIAHLEGEDGNCFHLVDSDPYKVGEILNIFCEAGHAPRMGMRIDSRMFGFIPPFIRQSIKNLPPVKRITGALLDDMGIPPSVMSFINYPTRFDTRELERVLKGTDIEVPRLPSYAPVIWDYWERNLDPDLFKDRTLKGTVEGKVCVVTGATSGIGLATAEKLAEAGAILVIGARTKETLDEVAASLEAKGGNVHAYQCDFSDMDDCDRFVKTVLDNHGHVDVLVNNAGRSIRRSLALSFDRFHDFERTMQLNYFGSVRLIMGFAPAMLERRRGHVVNISSIGVLTNAPRFSAYVSSKSALDAFSRCAAAEWSDRNVTFTTINMPLVKTPMIAPTKIYDSVPTLTPDEAAQMVADAIVYRPKRIATRLGVFAQVLHALAPKMGEIIMNTGYRMFPDSPAAAGSKSGEKPKVSTEQVAFAAIMRGIYW
[4]
  Km: 8 mM
  kcat: 0.1 s⁻¹

B2: Alcohol dehydrogenase from Thermoanaerobacter brockii (Thermoanaerobium brockii), SEQ ID NO: 13 (Uniprot P14941) (Thermoanaerobacter brockii) (protein)
chain: MKGFAMLSIGKVGWIEKEKPAPGPFDAIVRPLAVAPCTSDIHTVFEGAIGERHNMILGHEAVGEVVEVGSEVKDFKPGDRVVVPAITPDWRTSEVQRGYHQHSGGMLAGWKFSNVKDGVFGEFFHVNDADMNLAHLPKEIPLEAAVMIPDMMTTGFHGAELADIELGATVAVLGIGPVGLMAVAGAKLRGAGRIIAVGSRPVCVDAAKYYGATDIVNYKDGPIESQIMNLTEGKGVDAAIIAGGNADIMATAVKIVKPGGTIANVNYFGEGEVLPVPRLEWGCGMAHKTIKGGLCPGGRLRMERLIDLVFYKRVDPSKLVTHVFRGFDNIEKAFMLMKDKPKDLIKPVVILA
[5]
  Km: 100 mM
  kcat: 0.5 s⁻¹

B3: Short chain alcohol dehydrogenase-like protein from Hahella chejuensis, SEQ ID NO: 11 (Uniprot Q2SCE0) (Hahella chejuensis KCTC 2396) (protein)
chain: MNYFVTGGTGFIGRFLVPKLLKRGGTVYLLVREASLPKLDELRERWNASDEQVVGVVGDLAQPMLGVSEKDAAMLRGKVGHFFHLAAIYDMQASAESQEQANIEGTRNAVKLADSLKAACFHHVSSIAAAGLYRGIFREDMFEEAEKLDNPYLRTKHESEKVVREECQTPWRVYRPGMVVGHSKTGEIDKIDGPYYFFKLIQKLRSALPQWMPTVGLEGGRINIVPVDFVVDAMDHIAHAEGEDGKCFHLTDPDPYKVGEILNIFAEAGHAPKMAMRIDARMFGFIPPMIRQGIARLPPVQRMKNAVLNDLGIPDEVMSFINYPTRFDNRETERLLKGTAIAVPRLQDYSPAIWDYWERHLDPDLHKDRTLRGAVEGRVCVITGATSGIGLSAARKLAEAGAKVVIAARTLEKLQEVKKELEELGGEVYEYSVDLSDLEDCDRFVANVLKDLGHVDVLVNNAGRSIRRSIQHAFDRFHDFERTMQLNYFGSLRLIMGFAPSMLERRRGHIVNISSIGVLTNAPRFSAYVASKAALDAFSRCAAAEFSDKNVTFTTINMPLVRTPMISPTKIYDSVPTLTPEEAADLVAEAIIHRPKRIATRLGVFAQVLHSMAPKFSEIIMNTGFKMFPDSSAATGGKDGEKPKVSTEQVAFAAIMRGIHW
[4]
  Km: 5 mM
  kcat: 0.07 s⁻¹

B4: R-specific alcohol dehydrogenase from Lactobacillus kefiri, SEQ ID NO: 17 (Uniprot Q6WVP7) (Lentilactobacillus kefiri) (protein)
chain: MTDRLKGKVAIVTGGTLGIGLAIADKFVEEGAKVVITGRHADVGEKAAKSIGGTDVIRFVQHDASDEAGWTKLFDTTEEAFGPVTTVVNNAGIAVSKSVEDTTTEEWRKLLSVNLDGVFFGTRLGIQRMKNKGLGASIINMSSIEGFVGDPTLGAYNASKGAVRIMSKSAALDCALKDYDVRVNTVHPGYIKTPLVDDLEGAEEMMSQRTKTPMGHIGEPNDIAWICVYLASDESKFATGAEFVVDGGYTAQ
[6]
  Km: 19 mM
  kcat: 4 s⁻¹
